Laboratory results from patent US20220064327A1 (KYMAB, published 2022).
Substitutions are numbered along the chain they refer to. Values belong to the binder of their own block, whether it stands above or below them.

Legend:
human factor IX [1] = target: T1, human factor IX (human, UniProt P00740 47-461, 12 glutamic acid residues of the GLA domain are post-translationally γ-carboxylated); test: SPR, IgG captured on anti-human IgG Fc, human FIX as analyte
T1 construct: Zymogen used as analyte in SPR, reconstituted at 1 mg/ml; also called FIX; Human FIX (MW ~55 KDa)
Description: (§1) SPR was used to determine the binding affinity (KD) to FIX or FX respectively, the kinetic constants on-rate (kₒₙ) and off-rate (koff). Analyses was performed using a Biacore 8K (GE Healthcare) system.
(§2) Monospecific antibodies (referred as ligand) which had been purified on Protein A were captured onto the anti-human IgG Fc CM4 surface at approximately 2 μg/ml. The ligands were injected for 60 seconds at 10 μl/min in all the active channels of all 8 flow channels. The run was performed at 25° C. using neutral pH HBS-P 1X+CaCl₂ 2.5 mM as running buffer.
(§3) Human FIX (MW ˜55 KDa) or human FX (MW ˜58 KDa) was reconstituted at 1 mg/ml in the running buffer and used as analyte. The analyte was injected in multiple cycle kinetics (MCK) mode at 3 concentrations (1.5 μM, 500 nM and 166.7 nM) with 120 seconds association phase and 200 seconds (for FIX) or 300 seconds (for FX) dissociation phase, at flow rate […] in both active and reference channels. Three injections of 10 mM Glycine pH 1.5 for 60 sec. at 10 μl/min were used for the regeneration phase.

human factor IX [2] = target: T1, human factor IX; test: SPR as in Example 10, human FIX as analyte
Description: as §2, §3
(§4) Affinity and kinetics of purified anti-FIX and anti-FX antibodies for binding to their respective antigens was determined by SPR as described in Example 10 above.

human factor X [3] = target: T2, human factor X (human, UniProt P00742 41-179; P00742 183-488); test: SPR, IgG captured on anti-human IgG Fc, human FX as analyte
T2 construct: Zymogen used as analyte in SPR; also called FX; Human FX (MW ~58 KDa)
Description: as §1, §2, §3

human factor X [4] = target: T2, human factor X; test: SPR as in Example 10, human FX as analyte
Description: as §2, §3, §4

human factor X [5] = target: T2, human factor X; test: SPR as in Example 10, human FX as analyte; remark: listed apart in the source
human factor IX [6] = target: T1, human factor IX; test: SPR, IgG captured on anti-human IgG Fc, human FIX as analyte; remark: listed apart in the source

T2 sequence (P00742 41-179, chain 1 of 2): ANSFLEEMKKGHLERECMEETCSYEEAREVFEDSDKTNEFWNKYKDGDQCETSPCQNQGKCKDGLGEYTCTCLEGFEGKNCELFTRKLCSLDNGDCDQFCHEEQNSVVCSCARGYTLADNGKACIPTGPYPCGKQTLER
T2 sequence (P00742 183-488, chain 2 of 2): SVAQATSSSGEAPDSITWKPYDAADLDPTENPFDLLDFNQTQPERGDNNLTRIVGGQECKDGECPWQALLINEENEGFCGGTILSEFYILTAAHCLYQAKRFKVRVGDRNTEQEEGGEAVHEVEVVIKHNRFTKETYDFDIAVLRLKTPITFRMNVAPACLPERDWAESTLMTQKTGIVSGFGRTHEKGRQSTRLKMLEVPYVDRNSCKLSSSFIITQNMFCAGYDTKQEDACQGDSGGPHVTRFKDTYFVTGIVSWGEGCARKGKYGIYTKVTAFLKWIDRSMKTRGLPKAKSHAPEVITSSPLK
T1 sequence (P00740 47-461 limits assumed): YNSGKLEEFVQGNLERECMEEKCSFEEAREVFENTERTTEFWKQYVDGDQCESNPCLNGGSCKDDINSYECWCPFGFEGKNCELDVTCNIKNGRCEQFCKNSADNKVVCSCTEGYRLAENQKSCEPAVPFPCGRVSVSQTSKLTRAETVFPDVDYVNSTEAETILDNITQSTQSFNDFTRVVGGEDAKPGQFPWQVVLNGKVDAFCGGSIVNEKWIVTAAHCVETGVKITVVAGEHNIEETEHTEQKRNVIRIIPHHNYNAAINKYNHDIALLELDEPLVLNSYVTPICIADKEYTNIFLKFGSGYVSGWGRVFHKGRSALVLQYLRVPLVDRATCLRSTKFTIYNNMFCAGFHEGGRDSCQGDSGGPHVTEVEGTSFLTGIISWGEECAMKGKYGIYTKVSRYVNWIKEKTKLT

B1: NINA-0128 (antibody, V domains shown)
VH: EVQLVESGGGFVQPGGSLRLSCAVSGFTFNSYWMSWVRQAPGKGLEWVANINQDGSEKFYVASVKGRFTMSRDNAKKSVYVQMNSLRAEDTAVYYCAREGYSSSSYYGMDVWGQGTTVTVSS
VL: SYVLTQPPSVSVAPGETARITCGGDNIGRKSVYWYQQKSGQAPVLVIYYDSDRPSGIPERFSGSNSGNTATLTISRVEAGDEADYYCQVWDGSSDHWVFGGGTKLTVL
Kd (human factor IX [1]): 198 nM | koff (human factor IX [1]): 0.0576 s⁻¹ | kon (human factor IX [1]): 292000 M⁻¹ s⁻¹ | Kd (human factor IX [2]): 359 nM | koff (human factor IX [2]): 0.0492 s⁻¹ | kon (human factor IX [2]): 137000 M⁻¹ s⁻¹

B2: TINA-0215.0128 (antibody, V domains shown)
VH: QVQLVQSGAEVKKPGASVKVSCKASRYSFTSYYMHWVRQAPGQGLEWMGIINPKSGSTSYAQKFQGRVTMTRDTSTSTVYMELSSLRSEDTAVYYCARDGYGSSSRCLQLWGQGTLVTVSS
VL: B1 VL
notes: Monospecific IgG4PE
Kd (human factor X [3]): 1150 nM | koff (human factor X [3]): 0.0787 s⁻¹ | kon (human factor X [3]): 68400 M⁻¹ s⁻¹

B6: TINA-0210.0128 (antibody, V domains shown)
VH: B2 VH with S84N
VL: B1 VL
notes: Monospecific IgG4PE
Kd (human factor X [3]): 974 nM | koff (human factor X [3]): 0.0744 s⁻¹ | kon (human factor X [3]): 76400 M⁻¹ s⁻¹

B7: NINA-0456.0128 (antibody, V domains shown)
VH: B1 VH with S105L
VL: B1 VL
Kd (human factor IX [1]): 263 nM | koff (human factor IX [1]): 0.0396 s⁻¹ | kon (human factor IX [1]): 151000 M⁻¹ s⁻¹

B12: TINA-0616.0128 (antibody, V domains shown)
VH: B2 VH with V5I, L108I
VL: B1 VL
notes: Monospecific IgG; position is IMGT numbering, not a count on the entry
Kd (human factor X [4]): 530 nM | koff (human factor X [4]): 0.0222 s⁻¹ | kon (human factor X [4]): 41900 M⁻¹ s⁻¹

B14: TINA-0666.0128 (antibody, V domains shown)
VH: B2 VH with V5I, C107I, L108I
VL: B1 VL
notes: Monospecific IgG
Kd (human factor X [4]): 927 nM | koff (human factor X [4]): 0.0417 s⁻¹ | kon (human factor X [4]): 44900 M⁻¹ s⁻¹

B16: TINA-0207.0128 (antibody, V domains shown)
VH: B2 VH with P14T
VL: B1 VL
notes: Monospecific IgG4PE
Kd (human factor X [3]): 847 nM | koff (human factor X [3]): 0.141 s⁻¹ | kon (human factor X [3]): 166000 M⁻¹ s⁻¹

B18: NINA-0436.0128 (antibody, V domains shown)
VH: B1 VH with S104I
VL: B1 VL
Kd (human factor IX [1]): 184 nM | koff (human factor IX [1]): 0.0453 s⁻¹ | kon (human factor IX [1]): 246000 M⁻¹ s⁻¹ | Kd (human factor IX [2]): 359 nM | koff (human factor IX [2]): 0.0523 s⁻¹ | kon (human factor IX [2]): 146000 M⁻¹ s⁻¹

B19: NINA-0440.0128 (antibody, V domains shown)
VH: B1 VH with S104N
VL: B1 VL
Kd (human factor IX [1]): 289 nM | koff (human factor IX [1]): 0.0535 s⁻¹ | kon (human factor IX [1]): 185000 M⁻¹ s⁻¹

B23: TINA-0203.0128 (antibody, V domains shown)
VH: B2 VH with S84I
VL: B1 VL
notes: Monospecific IgG4PE
Kd (human factor X [3]): 880 nM | koff (human factor X [3]): 0.0598 s⁻¹ | kon (human factor X [3]): 68000 M⁻¹ s⁻¹

B25: NINA-0444.0128 (antibody, V domains shown)
VH: B1 VH with S104T
VL: B1 VL
Kd (human factor IX [1]): 206 nM | koff (human factor IX [1]): 0.0445 s⁻¹ | kon (human factor IX [1]): 216000 M⁻¹ s⁻¹

Results, then the binder that gave them:

Kd (human factor X [3]): 1130 nM | koff (human factor X [3]): 0.115 s⁻¹ | kon (human factor X [3]): 103000 M⁻¹ s⁻¹ | Kd (human factor X [4]): 2520 nM | koff (human factor X [4]): 0.112 s⁻¹ | kon (human factor X [4]): 44300 M⁻¹ s⁻¹ | Kd (human factor X [5]): 300 to 3000 nM
B3: TINA-0200.0128 (antibody, V domains shown)
VH: B2 VH with M34L, S55T, S57D, S77T, S105A
VL: B1 VL
notes: Monospecific IgG4PE

Kd (human factor X [3]): 1150 nM | koff (human factor X [3]): 0.0679 s⁻¹ | kon (human factor X [3]): 59000 M⁻¹ s⁻¹
B4: TINA-0209.0128 (antibody, V domains shown)
VH: B2 VH with K12Q, M34L, S55T, S57D, S77T, S105A
VL: B1 VL
notes: Monospecific IgG4PE

Kd (human factor X [3]): 466 nM | koff (human factor X [3]): 0.0558 s⁻¹ | kon (human factor X [3]): 120000 M⁻¹ s⁻¹
B5: TINA-0214.0128 (antibody, V domains shown)
VH: B2 VH with P14T, K23Q
VL: B1 VL
notes: Monospecific IgG4PE

Kd (human factor IX [6]): 300 nM | Kd (human factor IX [1]): 293 nM | koff (human factor IX [1]): 0.0673 s⁻¹ | kon (human factor IX [1]): 230000 M⁻¹ s⁻¹
B8: NINA-0438.0128 (antibody, V domains shown)
VH: B1 VH with S104L
VL: B1 VL

Kd (human factor IX [2]): 76.4 nM | koff (human factor IX [2]): 0.0171 s⁻¹ | kon (human factor IX [2]): 225000 M⁻¹ s⁻¹
B9: NINA-1172.0128 (antibody, V domains shown)
VH: B1 VH with E57R, S104I, S105K
VL: B1 VL

Kd (human factor X [3]): 812 nM | koff (human factor X [3]): 0.072 s⁻¹ | kon (human factor X [3]): 88700 M⁻¹ s⁻¹ | Kd (human factor X [4]): 1380 nM | koff (human factor X [4]): 0.0709 s⁻¹ | kon (human factor X [4]): 51300 M⁻¹ s⁻¹
B10: TINA-0202.0128 (antibody, V domains shown)
VH: B2 VH with V5I, K12Q
VL: B1 VL
notes: Monospecific IgG4PE

Kd (human factor X [3]): 992 nM | koff (human factor X [3]): 0.0667 s⁻¹ | kon (human factor X [3]): 67200 M⁻¹ s⁻¹
B11: TINA-0206.0128 (antibody, V domains shown)
VH: B2 VH with S57D, E82D, S105A
VL: B1 VL
notes: Monospecific IgG4PE

Kd (human factor X [4]): 333 nM | koff (human factor X [4]): 0.0232 s⁻¹ | kon (human factor X [4]): 69900 M⁻¹ s⁻¹ | Kd (human factor X [5]): 300 to 3000 nM
B13: TINA-0638.0128 (antibody, V domains shown)
VH: B2 VH with V5I, Q109M
VL: B1 VL
notes: as for B12

Kd (human factor X [3]): 564 nM | koff (human factor X [3]): 0.0574 s⁻¹ | kon (human factor X [3]): 102000 M⁻¹ s⁻¹
B15: TINA-0217.0128 (antibody, V domains shown)
VH: B2 VH with K12T
VL: B1 VL
notes: Monospecific IgG4PE

Kd (human factor X [3]): 579 nM | koff (human factor X [3]): 0.0502 s⁻¹ | kon (human factor X [3]): 86700 M⁻¹ s⁻¹ | Kd (human factor X [4]): 816 nM | koff (human factor X [4]): 0.0482 s⁻¹ | kon (human factor X [4]): 59000 M⁻¹ s⁻¹
B17: TINA-0201.0128 (antibody, V domains shown)
VH: B2 VH with V5I
VL: B1 VL
notes: Monospecific IgG4PE

Kd (human factor IX [2]): 52.3 nM | koff (human factor IX [2]): 0.01 s⁻¹ | kon (human factor IX [2]): 192000 M⁻¹ s⁻¹
B20: NINA-1280.0128 (antibody, V domains shown)
VH: B1 VH with T28R, E57R, S104I, S105K
VL: B1 VL

Kd (human factor X [3]): 718 nM | koff (human factor X [3]): 0.0785 s⁻¹ | kon (human factor X [3]): 109000 M⁻¹ s⁻¹
B21: TINA-0204.0128 (antibody, V domains shown)
VH: B2 VH with K12Q, P14T
VL: B1 VL
notes: Monospecific IgG4PE

Kd (human factor IX [1]): 242 nM | koff (human factor IX [1]): 0.0471 s⁻¹ | kon (human factor IX [1]): 194000 M⁻¹ s⁻¹
B22: NINA-0442.0128 (antibody, V domains shown)
VH: B1 VH with S104Q
VL: B1 VL

Kd (human factor IX [1]): 267 nM | koff (human factor IX [1]): 0.0544 s⁻¹ | kon (human factor IX [1]): 204000 M⁻¹ s⁻¹
B24: NINA-0445.0128 (antibody, V domains shown)
VH: B1 VH with S104V
VL: B1 VL

Kd (human factor X [3]): 680 nM | koff (human factor X [3]): 0.0447 s⁻¹ | kon (human factor X [3]): 65700 M⁻¹ s⁻¹
B26: TINA-0211.0128 (antibody, V domains shown)
VH: B2 VH with E82D
VL: B1 VL
notes: Monospecific IgG4PE

Kd (human factor IX [2]): 218 nM | koff (human factor IX [2]): 0.0352 s⁻¹ | kon (human factor IX [2]): 161000 M⁻¹ s⁻¹
B27: NINA-1091.0128 (antibody, V domains shown)
VH: B1 VH with E57R, S103I
VL: B1 VL
